Measured values taken from US20260265354A1 (JIANGSU MABWELL HEALTH PHARMACEUTICAL R AND D, published 2026).

Experiments:
Test in all cases: ELISA, coated antigen, antibody at 1000 ng/ml
Nectin-like-2 = biological target: T1, Nectin-like-2 (UniProt Q9BY67 45-374, limits assumed)
T1 construct: Bought recombinant protein; also called CADM1; IgSF4
T1 sequence (looked up): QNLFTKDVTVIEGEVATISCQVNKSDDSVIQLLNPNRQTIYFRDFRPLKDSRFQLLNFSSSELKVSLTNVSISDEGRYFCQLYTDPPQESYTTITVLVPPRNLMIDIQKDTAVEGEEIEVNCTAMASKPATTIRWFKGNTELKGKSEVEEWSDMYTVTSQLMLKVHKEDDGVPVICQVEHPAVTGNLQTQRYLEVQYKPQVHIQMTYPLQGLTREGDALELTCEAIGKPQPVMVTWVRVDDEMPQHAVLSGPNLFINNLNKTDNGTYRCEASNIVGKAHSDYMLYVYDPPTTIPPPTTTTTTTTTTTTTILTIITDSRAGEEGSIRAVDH
Description: (§1) Coating: Nectin-1, Nectin-2, Nectin-3, Nectin-4, Nectin-like-1, Nectin-like-2, Nectin-like-3, Nectin-like-4, and Nectin-like-5 were diluted to 5 μg/ml in coating buffer (carbonate buffer, pH 9.6) respectively. A 96-well plate was coat with 100 μl per well and incubated overnight at 2-8° C.;
(§2) Sample loading: The plate was taken out, patted dry, and washed twice with 200 μl/well of PBST, then patted dry. The Nectin-4 antibodies prepared in Example 1 (antibody MM11, antibody R012, and antibody R036) were diluted with 1% BSA/PBST to concentrations of 10 μg/ml, 1 μg/ml, 100 ng/ml, and 10 ng/ml, respectively. 1% BSA/PBST solution for dilution was set as a blank control. 100 μl per well was added to the 96-well plate, and incubated at room temperature for 2 hours;
(§3) Reaction termination and plate reading: 100 μl/well of 1 mol/L H3PO4 was added to terminate the reaction and the plated was read. The absorbances of wells in the plate at 450 nm with 650 nm as reference wavelength were read and recorded as OD_{450 nm-650 nm}.

Nectin-like-4 = biological target: T2, Nectin-like-4 (UniProt Q8NFZ8 21-324, limits assumed)
T2 construct: Bought recombinant protein; also called CADM4; IgSF4C
T2 sequence (looked up): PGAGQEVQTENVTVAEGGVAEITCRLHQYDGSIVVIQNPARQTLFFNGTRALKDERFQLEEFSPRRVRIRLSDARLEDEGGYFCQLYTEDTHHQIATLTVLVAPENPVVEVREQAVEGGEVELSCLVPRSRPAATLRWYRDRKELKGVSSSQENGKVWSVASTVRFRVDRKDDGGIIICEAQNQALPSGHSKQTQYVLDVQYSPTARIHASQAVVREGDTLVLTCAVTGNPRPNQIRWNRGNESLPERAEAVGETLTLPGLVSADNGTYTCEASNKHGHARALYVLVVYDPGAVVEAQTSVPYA
Description: as §1, §2, §3

[1] = biological target: T3, recombinant human Nectin-4 protein (human, UniProt Q96NY8 32-349)
T3 construct: Prepared in-house (Jiangsu Mabwell) by transient transfection of CHO cells; also called PVRL-4; PRR-4
T3 sequence: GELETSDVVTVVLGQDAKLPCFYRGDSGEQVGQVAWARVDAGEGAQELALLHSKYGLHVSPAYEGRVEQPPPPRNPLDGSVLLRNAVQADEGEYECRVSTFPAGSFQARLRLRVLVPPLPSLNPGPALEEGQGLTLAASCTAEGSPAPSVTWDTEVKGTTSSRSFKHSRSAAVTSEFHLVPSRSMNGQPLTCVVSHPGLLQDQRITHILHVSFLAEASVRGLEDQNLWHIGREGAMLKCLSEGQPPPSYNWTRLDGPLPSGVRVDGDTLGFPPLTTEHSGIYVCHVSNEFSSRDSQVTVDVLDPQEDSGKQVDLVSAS
Description: as §1, §2, §3

Nectin-1 = biological target: T4, Nectin-1 (UniProt Q15223 31-334, limits assumed)
T4 construct: Bought recombinant protein; also called CD111; PVRL-1
T4 sequence (looked up): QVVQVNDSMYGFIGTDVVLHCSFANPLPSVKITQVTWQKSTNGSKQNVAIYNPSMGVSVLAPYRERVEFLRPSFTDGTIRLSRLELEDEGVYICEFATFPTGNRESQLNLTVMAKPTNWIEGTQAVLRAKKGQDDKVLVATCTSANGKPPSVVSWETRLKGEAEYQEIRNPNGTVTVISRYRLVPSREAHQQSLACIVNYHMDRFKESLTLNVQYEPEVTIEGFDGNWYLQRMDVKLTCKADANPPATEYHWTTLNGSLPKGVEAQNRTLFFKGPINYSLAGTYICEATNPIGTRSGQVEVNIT
Description: as §1, §2, §3

Nectin-2 = biological target: T5, Nectin-2 (UniProt Q92692 32-360, limits assumed)
T5 construct: Bought recombinant protein; also called CD112; PVRL-2
T5 sequence (looked up): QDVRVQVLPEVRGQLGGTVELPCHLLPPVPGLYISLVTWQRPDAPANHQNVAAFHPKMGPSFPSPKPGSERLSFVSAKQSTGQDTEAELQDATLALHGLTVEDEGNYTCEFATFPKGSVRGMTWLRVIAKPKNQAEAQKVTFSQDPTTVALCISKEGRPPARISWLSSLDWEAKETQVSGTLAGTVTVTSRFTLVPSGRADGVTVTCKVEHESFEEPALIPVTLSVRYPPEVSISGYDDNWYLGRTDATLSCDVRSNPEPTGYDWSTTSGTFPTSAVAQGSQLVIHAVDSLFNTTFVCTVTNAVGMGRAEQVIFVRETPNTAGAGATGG
Description: as §1, §2, §3

Nectin-like-1 = biological target: T6, Nectin-like-1 (UniProt Q8N126 25-330, limits assumed)
T6 construct: Bought recombinant protein; also called CADM3; IgSF4B
T6 sequence (looked up): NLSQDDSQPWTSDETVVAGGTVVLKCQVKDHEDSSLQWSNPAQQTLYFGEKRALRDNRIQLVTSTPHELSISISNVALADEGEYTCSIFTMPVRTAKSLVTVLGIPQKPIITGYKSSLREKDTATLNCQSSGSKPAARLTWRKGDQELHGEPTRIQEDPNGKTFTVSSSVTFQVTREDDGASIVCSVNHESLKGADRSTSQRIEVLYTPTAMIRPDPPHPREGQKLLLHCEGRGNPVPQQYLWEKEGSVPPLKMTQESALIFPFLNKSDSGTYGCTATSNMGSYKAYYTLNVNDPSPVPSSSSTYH
Description: as §1, §2, §3

| Binder | OD detection value (Nectin-like-2) | OD detection value (Nectin-like-4) | OD detection value [1] | OD detection value (Nectin-1) | OD detection value (Nectin-2) | OD detection value (Nectin-like-1) |
| --- | --- | --- | --- | --- | --- | --- |
| Antibody MM11 (antibody, mouse IgG1, kappa, V domains shown, Mouse monoclonal antibody from hybridoma; also called Nectin-4 mouse monoclonal antibody MM11; mouse antibody MM11) VH: DVQLQESGPGLVKPSQSLSLTCSVTGYSITSNFYWNWIRQFPGNRLEWMGYISYDGSNNYNPSLKNRISISRDTSKNQFFLKLNSVTTEDTATYYCVRADYWGQGTLVTVSA VL: DTVMTQTPLSLPVSLGDQASISCRSSQSLESSDGHAYLNWYLQKPGQSPQLLIYRVSNRFSGVLHRFSGSGSGTDFTLKISRVEAEDLGVYFCLQFTHVPFTFGSGTKLEIKR | 0.008 OD450 nm-650 nm | 0.01 OD450 nm-650 nm | 2.05 OD450 nm-650 nm | 0.007 OD450 nm-650 nm | 0.008 OD450 nm-650 nm | 0.008 OD450 nm-650 nm |
| Antibody R012 (antibody, V domains shown, Rabbit monoclonal antibody from phage display; also called Nectin-4 rabbit monoclonal antibody R012; rabbit antibody R012) VH: SKSVEESGGRLVTPGTPLTLTCTVSGFSLSTYAMSWVRQAPGKGLEYIGIISGRGTTYYASWLKGRFTISKTSTTVDLKITSPTTEDTATYFCARDAGISDVYTGYFNLWGQGTLVTVSS VL: QPVLAQLPSASAALGASAKLTCTLSSAHRTYTIAWYQQQQGEAPRYLMMLKSDGSYTKGTGVPDRFSGSSSGADRYLIISSVQAADEADYYCGADDSGGYVFGGGTQLTVTG | 0.007 OD450 nm-650 nm | 0.007 OD450 nm-650 nm | 1.56 OD450 nm-650 nm | 0.007 OD450 nm-650 nm | 0.007 OD450 nm-650 nm | 0.01 OD450 nm-650 nm |
| Antibody R036 (antibody, V domains shown, Rabbit monoclonal antibody from phage display; also called Nectin-4 rabbit monoclonal antibody R036; rabbit antibody R036) VH: SQSVEESGGRLVTPGTPLTLTCTVSGFSLSSYAMSWVRQAPGKGLEYIGIIGGRGTTYYAIWAKGRFTISKTSTTVDLKITSPTTEDTATYFCARDAGTTYVGTTYVATGYFNLWGQGTLVTVSS VL: QPVLTQPPSASAALGASAKLTCTLSSAHKTYTIAWYQQQQGEAPRYLMILKSDGSYTRGTGVPDRFSGSSSGADRYLIISSVQADDEADYYCGADDSGGYVFGGGTQLTVTG | 0.006 OD450 nm-650 nm | 0.007 OD450 nm-650 nm | 1.64 OD450 nm-650 nm | 0.006 OD450 nm-650 nm | 0.007 OD450 nm-650 nm | 0.007 OD450 nm-650 nm |
